Results from patent publication US20110130541A1.

With “BY-kinase A1B2 from Staphylococcus aureus” the Radioactivity incorporated in A1B2 (cpm); 50 pmole BYK001, 50 pmole A1B2, incubation 0.5 min (BYK001) was 29200 cpm, the Radioactivity incorporated in A1B2 (cpm); 50 pmole BYK001, 50 pmole A1B2, incubation 1 min (BYK001) was 71700 cpm and the Radioactivity incorporated in A1B2 (cpm); 50 pmole BYK001, 50 pmole A1B2, incubation 2 min (BYK001) was 133000 cpm. It also gave a Radioactivity incorporated in A1B2 (cpm); 50 pmole BYK001, 50 pmole A1B2, incubation 5 min (BYK001) of 326000 cpm, a Radioactivity incorporated in A1B2 (cpm); 500 pmole BYK001, 50 pmole A1B2, incubation 0.5 min (BYK001) of 30700 cpm and a Radioactivity incorporated in A1B2 (cpm); 500 pmole BYK001, 50 pmole A1B2, incubation 1 min (BYK001) of 72500 cpm. It also gave a Radioactivity incorporated in A1B2 (cpm); 500 pmole BYK001, 50 pmole A1B2, incubation 2 min (BYK001) of 134000 cpm, a Radioactivity incorporated in A1B2 (cpm); 500 pmole BYK001, 50 pmole A1B2, incubation 5 min (BYK001) of 325000 cpm and a Radioactivity incorporated in A1B2 (cpm); 5000 pmole BYK001, 50 pmole A1B2, incubation 0.5 min (BYK001) of 29900 cpm. For the same substance, the Radioactivity incorporated in A1B2 (cpm); 5000 pmole BYK001, 50 pmole A1B2, incubation 1 min (BYK001) was 72500 cpm, the Radioactivity incorporated in A1B2 (cpm); 5000 pmole BYK001, 50 pmole A1B2, incubation 2 min (BYK001) was 141000 cpm and the Radioactivity incorporated in A1B2 (cpm); 5000 pmole BYK001, 50 pmole A1B2, incubation 5 min (BYK001) was 324000 cpm. For the same substance, the Radioactivity incorporated in CapO (cpm); 50 pmole BYK001, 50 pmol A1B2, 50 pmole CapO, incubation 0.5 min (BYK001) was 3560 cpm, the Radioactivity incorporated in CapO (cpm); 50 pmole BYK001, 50 pmol A1B2, 50 pmole CapO, incubation 1 min (BYK001) was 6390 cpm and the Radioactivity incorporated in CapO (cpm); 50 pmole BYK001, 50 pmol A1B2, 50 pmole CapO, incubation 2 min (BYK001) was 15500 cpm. The Radioactivity incorporated in CapO (cpm); 50 pmole BYK001, 50 pmol A1B2, 50 pmole CapO, incubation 5 min (BYK001) was 31900 cpm, the Radioactivity incorporated in CapO (cpm); 500 pmole BYK001, 50 pmol A1B2, 50 pmole CapO, incubation 0.5 min (BYK001) was 3500 cpm and the Radioactivity incorporated in CapO (cpm); 500 pmole BYK001, 50 pmol A1B2, 50 pmole CapO, incubation 1 min (BYK001) was 6300 cpm. For the same substance, the Radioactivity incorporated in CapO (cpm); 500 pmole BYK001, 50 pmol A1B2, 50 pmole CapO, incubation 2 min (BYK001) was 15500 cpm, the Radioactivity incorporated in CapO (cpm); 500 pmole BYK001, 50 pmol A1B2, 50 pmole CapO, incubation 5 min (BYK001) was 31300 cpm and the Radioactivity incorporated in CapO (cpm); 5000 pmole BYK001, 50 pmol A1B2, 50 pmole CapO, incubation 0.5 min (BYK001) was 3510 cpm. The Radioactivity incorporated in CapO (cpm); 5000 pmole BYK001, 50 pmol A1B2, 50 pmole CapO, incubation 1 min (BYK001) was 6320 cpm, the Radioactivity incorporated in CapO (cpm); 5000 pmole BYK001, 50 pmol A1B2, 50 pmole CapO, incubation 2 min (BYK001) was 15500 cpm and the Radioactivity incorporated in CapO (cpm); 5000 pmole BYK001, 50 pmol A1B2, 50 pmole CapO, incubation 5 min (BYK001) was 31000 cpm. For the same substance, the Radioactivity incorporated in CapO (cpm); 50 pmol A1B2, 50 pmole CapO, no BYK001, incubation 0.5 min (CapO) was 3950 cpm, the Radioactivity incorporated in CapO (cpm); 50 pmol A1B2, 50 pmole CapO, no BYK001, incubation 1 min (CapO) was 7040 cpm and the Radioactivity incorporated in CapO (cpm); 50 pmol A1B2, 50 pmole CapO, no BYK001, incubation 2 min (CapO) was 17400 cpm. For the same substance, the Radioactivity incorporated in CapO (cpm); 50 pmol A1B2, 50 pmole CapO, no BYK001, incubation 5 min (CapO) was 34700 cpm.
